What all share (test): cell-based or functional assay
Test [1] deals with Solomon Islands/3/2006(H1N1) (Influenza A virus Solomon …).
Test [2] has as its target A/swine/Jalisco/12-13/2012(H1N1) (Influenza A virus …).
Test [3] has as its target New Caledonia/20/99(H1N1) (Influenza A virus New Caledonia/20/99 …).

B1: 3E6单克隆抗体 (antibody, V domains shown)
VH: EVQLEESGTELARPGASVKLALKASGYIFSSYSGQWIKQRPGAGLELIGYPYPGWIDTRYTQKLTGKATLTADKSSSTLYMQLSSLASEDSAVAYCAGSYFSSDAWGLGTTLAVSS
VL: DIVLTQSPALMAASAGEKVTITCAVSQSIQSGYLAWYQQKSGISPKPWIYDTSNQAGGVPARFSGAGSGTSYSLTITSMEAEDAATYYCAQGTTSPLSFGAGTKLELK
Consider B1, for which the figures for the “中和活性 (Lenti-pseudovirus, 293A细胞, β-gal; 抗体浓度 0.01μg/mL)” value in test [1], in test [2] and in test [3] were 0.843, 0.974 and 0.865, respectively.

These data come from patent publication CN112063765A (BEIJING XINSONG BIOLOGICAL TECH CO LTD, dated 2020).
